Values quoted from earlier work, collected in PMC2855346.
pKd: −log10 of the molar value.

Molecular target: CCR2 (Homo sapiens) (UniProt P41597)
Chain of UniProt P41597 (P41597 whole entry): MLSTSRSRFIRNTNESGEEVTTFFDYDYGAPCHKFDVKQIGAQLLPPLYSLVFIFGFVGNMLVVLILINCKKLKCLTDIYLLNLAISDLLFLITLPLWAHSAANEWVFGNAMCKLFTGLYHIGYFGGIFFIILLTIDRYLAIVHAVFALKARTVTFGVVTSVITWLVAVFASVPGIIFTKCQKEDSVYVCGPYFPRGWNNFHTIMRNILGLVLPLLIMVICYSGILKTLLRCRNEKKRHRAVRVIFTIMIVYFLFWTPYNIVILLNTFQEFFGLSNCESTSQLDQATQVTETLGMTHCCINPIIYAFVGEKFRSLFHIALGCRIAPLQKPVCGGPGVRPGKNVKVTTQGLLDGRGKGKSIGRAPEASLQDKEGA

CCL2 (from UniProt P13500)
pKd: 8.60
